Test [1] addresses leptin receptor (Mus musculus) (UniProt P48356). Nature of the test: SPR. Conditions: cited from earlier work.
The target in test [2] is T1, Recombinant human leptin receptor-Fc chimera (human, UniProt P48357 22-839).
T1 sequence (looked up): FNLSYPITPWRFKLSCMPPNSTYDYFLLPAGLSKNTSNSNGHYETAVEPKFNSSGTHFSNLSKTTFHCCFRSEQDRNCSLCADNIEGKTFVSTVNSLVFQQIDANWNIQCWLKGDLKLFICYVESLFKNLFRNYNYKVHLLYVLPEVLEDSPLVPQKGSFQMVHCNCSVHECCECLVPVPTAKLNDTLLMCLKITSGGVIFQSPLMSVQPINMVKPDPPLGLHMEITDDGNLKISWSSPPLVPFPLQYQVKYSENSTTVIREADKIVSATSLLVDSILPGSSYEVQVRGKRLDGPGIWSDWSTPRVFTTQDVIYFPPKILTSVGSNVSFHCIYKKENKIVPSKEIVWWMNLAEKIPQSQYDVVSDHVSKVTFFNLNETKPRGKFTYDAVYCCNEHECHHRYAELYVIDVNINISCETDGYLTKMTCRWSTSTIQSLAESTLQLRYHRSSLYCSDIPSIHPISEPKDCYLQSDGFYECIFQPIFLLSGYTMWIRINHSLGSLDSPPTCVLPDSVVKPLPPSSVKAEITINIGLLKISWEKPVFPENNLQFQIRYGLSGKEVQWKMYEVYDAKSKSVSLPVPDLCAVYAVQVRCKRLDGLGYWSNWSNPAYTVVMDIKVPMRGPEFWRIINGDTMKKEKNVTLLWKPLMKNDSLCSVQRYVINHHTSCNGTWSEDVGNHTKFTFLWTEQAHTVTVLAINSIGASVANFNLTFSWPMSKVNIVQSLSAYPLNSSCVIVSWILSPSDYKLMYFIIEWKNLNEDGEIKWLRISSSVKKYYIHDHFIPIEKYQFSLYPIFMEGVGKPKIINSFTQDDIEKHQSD
Nature of the test: SPR. On the technique in general: Surface plasmon resonance follows binding to a sensor surface in real time, without labels.

leptin receptor (Mus musculus), sequence (P48356 22-839): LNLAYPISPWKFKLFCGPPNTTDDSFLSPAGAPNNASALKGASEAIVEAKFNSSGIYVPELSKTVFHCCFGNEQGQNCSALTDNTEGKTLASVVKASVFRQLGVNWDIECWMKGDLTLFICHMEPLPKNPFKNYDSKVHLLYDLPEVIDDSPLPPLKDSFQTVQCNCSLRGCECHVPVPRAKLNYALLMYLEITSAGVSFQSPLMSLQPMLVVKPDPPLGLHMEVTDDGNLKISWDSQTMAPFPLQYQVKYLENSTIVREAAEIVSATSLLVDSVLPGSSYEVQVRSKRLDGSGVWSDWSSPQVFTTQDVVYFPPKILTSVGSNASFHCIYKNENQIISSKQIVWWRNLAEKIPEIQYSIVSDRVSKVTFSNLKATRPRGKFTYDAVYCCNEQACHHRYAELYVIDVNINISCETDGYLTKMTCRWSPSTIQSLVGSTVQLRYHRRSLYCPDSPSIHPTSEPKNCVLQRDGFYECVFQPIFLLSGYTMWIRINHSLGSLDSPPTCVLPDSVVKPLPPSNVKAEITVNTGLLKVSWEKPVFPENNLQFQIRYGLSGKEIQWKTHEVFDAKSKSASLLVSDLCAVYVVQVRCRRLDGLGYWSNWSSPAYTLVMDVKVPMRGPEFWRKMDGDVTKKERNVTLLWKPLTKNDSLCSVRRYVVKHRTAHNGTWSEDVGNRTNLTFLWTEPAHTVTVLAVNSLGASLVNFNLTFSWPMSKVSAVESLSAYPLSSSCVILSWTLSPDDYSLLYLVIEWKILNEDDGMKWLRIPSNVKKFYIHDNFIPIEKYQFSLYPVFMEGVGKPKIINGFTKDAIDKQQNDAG

The Kd is the concentration at which binding is half-saturated. For leptin (from UniProt P41160), in test [1], the dissociation constant (Kd) is 0.12 nM.

B1: Recombinant mouse leptin (ligand, UniProt P41160 22-167, looked up)
chain: VPIQKVQDDTKTLIKTIVTRINDISHTQSVSAKQRVTGLDFIPGLHPILSLSKMDQTLAVYQQVLTSLPSQNVLQIANDLENLRDLLHLLAFSKSCSLPQTSGLQKPESLDGVLEASLYSTEVVALSRLQGSLQDILQQLDVSPEC
Regarding B1, in test [2], the dissociation constant Kd came to 0.089 nM.

B2: Leptin N-terminal conjugate with Pluronic P85 (LepNP85), 1:1 conjugate (ligand, mouse, UniProt P41160 22-167, looked up)
chain: VPIQKVQDDTKTLIKTIVTRINDISHTQSVSAKQRVTGLDFIPGLHPILSLSKMDQTLAVYQQVLTSLPSQNVLQIANDLENLRDLLHLLAFSKSCSLPQTSGLQKPESLDGVLEASLYSTEVVALSRLQGSLQDILQQLDVSPEC
modifications: one chain of Pluronic P85 on the N-terminal amine (reductive amination, secondary amine)
For B2, the equilibrium dissociation constant (Kd) in test [2] stood at 0.2 nM.

B3: Leptin N-terminal conjugate with poly(ethylene glycol) (LepNPEG5K), 1:1 conjugate (ligand, mouse, UniProt P41160 22-167, looked up)
chain: VPIQKVQDDTKTLIKTIVTRINDISHTQSVSAKQRVTGLDFIPGLHPILSLSKMDQTLAVYQQVLTSLPSQNVLQIANDLENLRDLLHLLAFSKSCSLPQTSGLQKPESLDGVLEASLYSTEVVALSRLQGSLQDILQQLDVSPEC
modifications: one chain of PEG (average molecular mass 5000 Da) on the N-terminal amine (reductive amination)
With B3, the dissociation constant Kd in test [2] was found to be 0.28 nM.

Source of the values: article PMC5603367 (Journal of controlled release : official journal of the …, 2017).
